{"source": "paper doi:10.1101/2020.12.20.423689", "about": "(bioRxiv, 2020)", "binders": {"B1": {"name": "human mitochondrial elongation factor G2 (EF-G2mt) (natural protein)", "chain": "MLTNLRIFAMSHQTIPSVYINNICCYKIRASLKRLKPHVPLGRNCSSLPGLIGNDIKSLHSIINPPIAKIRNIGIMAHIDAGKTTTTERILYYSGYTRSLGDVDDGDTVTDFMAQERERGITIQSAAVTFDWKGYRVNLIDTPGHVDFTLEVERCLRVLDGAVAVFDASAGVEAQTLTVWRQADKHNIPRICFLNKMDKTGASFKYAVESIREKLKAKPLLLQLPIGEAKTFKGVVDVVMKEKLLWNCNSNDGKDFERKPLLEMNDPELLKETTEARNALIEQVADLDDEFADLVLEEFSENFDLLPAEKLQTAIHRVTLAQTAVPVLCGSALKNKGIQPLLDAVTMYLPSPEERNYEFLQWYKDDLCALAFKVLHDKQRGPLVFMRIYSGTIKPQLAIHNINGNCTERISRLLLPFADQHVEIPSLTAGNIALTVGLKHTATGDTIVSSKSSALAAARRAEREGEKKHRQNNEAERLLLAGVEIPEPVFFCTIEPPSLSKQPDLEHALKCLQREDPSLKVRLDPDSGQTVLCGMGELHIEIIHDRIKREYGLETYLGPLQVAYRETILNSVRATDTLDRTLGDKRHLVTVEVEARPIETSSVMPVIEFEYAESINEGLLKVSQEAIENGIHSACLQGPLLGSPIQDVAITLHSLTIHPGTSTTMISACVSRCVQKALKKADKQVLEPLMNLEVTVARDYLSPVLADLAQRRGNIQEIQTRQDNKVVIGFVPLAEIMGYSTVLRTLTSGSATFALELSTYQAMNPQDQNTLLNRRSGLT"}}, "target": "mitoribosomal protein uL12m (human, UniProt P52815 37-198)", "experiment": "cryo-EM structure"}
{"binder": "B1", "values": [{"measurement": "binding result", "result": "binds"}]}
